# According to patent US12123009B2, “Methods and compositions for PPO herbicide tolerance in plants” (Monsanto Technology LLC, priority 2015, dated 2024):
# B1: H_N10: E. coli wild-type HemG protoporphyrinogen oxidase, SEQ ID NO:4 (SEQ ID NO:13 lacking start methionine) (protein, listed as Escherichia coli)
# chain: MKTLILFSTRDGQTREIASYLASELKELGIQADVANVHRIEEPQWENYDRVVIGASIRYGHYHSAFQEFVKKHATRLNSMPSAFYSVNLVARKPEKRTPQTNSYARKFLMNSQWRPDRCAVIAGALRYPRYRWYDRFMIKLIMKMSGGETDTRKEVVYTDWEQVANFAREIAHLTDKPTLK
# B2: Waterhemp: herbicide-sensitive wild-type protoporphyrinogen oxidase from Amaranthus tuberculatus (waterhemp), SEQ ID NO:21; plastid extract in Table 3 (protein, listed as Amaranthus tuberculatus)
# chain: MGNISEREEPTSAKRVAVVGAGVSGLAAAYKLKSHGLSVTLFEADSRAGGKLKTVKKDGFIWDEGANTMTESEAEVSSLIDDLGLREKQQLPISQNKRYIARDGLPVLLPSNPAALLTSNILSAKSKLQIMLEPFLWRKHNATELSDEHVQESVGEFFERHFGKEFVDYVIDPFVAGTCGGDPQSLSMHHTFPEVWNIEKRFGSVFAGLIQSTLLSKKEKGGENASIKKPRVRGSFSFQGGMQTLVDTMCKQLGEDELKLQCEVLSLSYNQKGIPSLGNWSVSSMSNNTSEDQSYDAVVVTAPIRNVKEMKIMKFGNPFSLDFIPEVTYVPLSVMITAFKKDKVKRPLEGFGVLIPSKEQHNGLKTLGTLFSSMMFPDRAPSDMCLFTTFVGGSRNRKLANASTDELKQIVSSDLQQLLGTEDEPSFVNHLFWSNAFPLYGHNYDSVLRAIDKMEKDLPGFFYAGNHKGGLSVGKAMASGCKAAELVISYLDSHIYVKMDEKTA
# What was measured:
# [1] = system: soybean plantlets; test: High-throughput soybean screening for herbicide tolerance (plantlets); type: in vivo, soybean (A3555); parameters: key: 0 for poor tolerance, high damage, low green coloration; 1 for some tolerance, average damage, moderate green coloration; 2 for good tolerance, low damage, high green coloration; settings: S-3100 spray five weeks post-transformation, scored day four
# Source text: A high-throughput plant transformation and screening method was used to evaluate large numbers of constructs in transgenic plants for herbicide tolerance in early transformation plantlet tissue. This allowed for faster and higher volume screening of construct configurations and PPO enzymes.
# This permitted the side-by-side comparison of seven different HemG PPO enzymes with thirty-seven different targeting peptides using the same promoter and 3′UTR elements for gene expression. These plant transformation constructs were used to transform soybean excised embryos (germplasm A3555) using A. tumefaciens and standard methods known in the art. Four hundred explants were inoculated for each construct resulting in twelve containers per construct. A sterile PPO herbicide solution was used for herbicide tolerance testing. The herbicide solution consisted of 0.3 g of S-3100 in crop oil concentrate (5.0 mL) and 495 mL of deionized water. This was filtered through a 0.45 micron Nalgene® Rapid-Flow™ Tissue Culture Filter Unit and Surfactant-Free Cellulose Acetate membrane filter unit (VWR, Radnor, PA, USA). The resulting sterile solution was shaken before application.
# At five weeks post-transformation, four of the twelve plant containers per construct were sprayed with two passes of the sterile PPO herbicide solution. The treated plantlets were then enclosed in the container and received at least 15 hours of light exposure post spray each day for four days. At the end of day four post application of S-3100, the treated plantlets were photographed and scored on a visual scale of green coloration (green coloration was representative of healthy photosynthetic plant tissue as compared to photo-bleached tissue) versus damage. The scoring values were 0 for poor tolerance, high damage, low green coloration; 1 for some tolerance, average damage, moderate green coloration; and 2 for good tolerance, low damage, high green coloration. The scoring for each construct is presented in Table 9, where n.d. indicates the analysis was not conducted.
# [2] = system: transgenic maize plants; test: R0 transgenic maize 40 g/ha S-3100 spray test; type: in vivo
# Source text: H_N60 (SEQ ID NO:3). […] These five constructs had the same promoter plus leader plus intron combination, with two different targeting peptide (TP) sequences, and the same 3′UTR sequence. Leaf samples were taken from the R0 plants and analyzed by PCR to determine the transgene copy number. Single copy plants for up to 12 unique events per construct were transplanted to pots, selfed and outcrossed to generate R1 and F1 seed, respectively, for future testing. Multi-copy plants and extra single copy plants were sprayed with 40 grams/ha 5-3100 at approximately the V5 growth stage and injury ratings were taken 7 days after treatment. The average percent (%) injury for all plants expressing each PPO enzyme and the number of plants that were deemed highly tolerant (less than 10% injury) was noted, where each plant is a unique single or multi-copy transformant.
# [3] = system: transgenic maize plants; test: R0 multi-copy transgenic maize S-3100 spray test; type: in vivo, maize (LH244)
# Source text: For maize in planta testing, immature maize (LH244) embryos were transformed with using Agrobacterium tumefaciens and standard methods known in the art. […] Leaf samples were collected from R0 plants and screened by PCR to determine the number of copies of the transgene inserted into the plant genome. […] Plants containing multiple copies (multi-copy) were sprayed as follows: […]
# [4] = system: F1 maize; test: Efficacy field trial of F1 maize; type: in vivo; settings: F1 transgenic maize greenhouse and field data
# Experimental: This F1 population was segregating (50% hemizygous and 50% null) and selection for transgenic plants was not conducted prior to injury ratings. The overall average injury ratings for such a population are expected to be higher than a homogenous transgenic population since it is difficult to discern non-transgenic plants from transgenic plants. The trials were conducted at two locations with two replicates and 3 treatments per construct. Non-transgenic maize plants were used as a negative control. The herbicide application treatments were as follows: Treatment 1 was 0.036 lb ai/acre S-3100 applied at V2 followed by (fb) V4 fb V8; Treatment 2: was 0.072 lb ai/acre S-3100 applied at V2 fb V4 fb V8; Treatment 3: was 0.144 lb ai/acre S-3100 applied at V2 fb V4 fb V8. Crop Injury Percent ratings were assessed at the V2 growth stage (CIPV2) and at the V4 growth stage (CIPV4) at 5 to 7 days after treatment (the error V2 and error V4 are half of the least significant difference (LSD)). The crop injury ratings were combined for both locations.
# [5] = system: hemG knockout E. coli strain; type: cell-based; settings: LB medium plates (heme-free)
# [6] = system: hemG knockout E. coli strain; type: cell-based; settings: LB liquid medium, acifluorfen (1 mM), flumioxazin (0.5 mM), lactofen (0.5 mM), fomesafen (1 mM), S-3100 (100 uM)
# [7] = 40 grams/ha S-3100 at V5, 7 days after treatment, R0 plants
molecule,measurement,setting,value
B1,coloration score,[1]; TP9,1
same,coloration score,[1]; TP12,1
same,coloration score,[1]; TP13,1
same,coloration score,[1]; TP14,0
same,coloration score,[1]; TP16,1
same,coloration score,[1]; TP18,1
same,coloration score,[1]; TP19,0
same,coloration score,[1]; TP20,0
same,coloration score,[1]; TP21,0
same,coloration score,[1]; TP22,1
same,coloration score,[1]; TP23,1
same,coloration score,[1]; TP24,0
same,coloration score,[1]; TP26,0
same,coloration score,[1]; TP27,1
same,coloration score,[1]; TP31,1
same,coloration score,[1]; TP33,1
same,coloration score,[1]; TP36,0
same,Average Injury,[2]; [7],39.5%
same,Highly Tolerant (number of plants with less than 10% injury),[2]; [7],31
same,injury rates when expressed in transgenic plants (crop tolerance to a PPO herbicide),[2]; R0 transgenic maize data,reduced injury rates
same,Average Injury,"[3]; Treatment 1: 5 g/ha S-3100 at V5 followed by 10 g/ha at V7, total 15 g/ha, 7 days after final treatment, H_N10 in construct 6",28.9%
same,Average Injury,"[3]; Treatment 2: 10 g/ha S-3100 at V5, 7 days after treatment, H_N10 in construct 16",24.2%
same,injury rates when expressed in transgenic plants (crop tolerance to a PPO herbicide),[4],reduced injury rates
B2,restore growth of the transformed hemG knockout E. coli strain (PPO activity),[5],able to restore growth
same,growth of hemG knockout E. coli strain in the presence of a PPO herbicide,[6],sensitive
